# According to PMC7149228:
# Target: Polyubiquitinated model substrate (lac repressor degron-sfGFP) bearing long ubiquitin chains (E. coli | not stated) (UniProt P0CG48)
# Experiment: MST
substance,measurement,value
Ddi1 construct containing the HDD and RVP domains (D220N) (domain or fragment),Kd,100 µM
